Results published in paper PMC12416549 (2024).
Where a chain is given by its changes, count along the chain named. Names may count otherwise.

T1: TNFR1 (Homo sapiens, UniProt P19438)
T1 chain: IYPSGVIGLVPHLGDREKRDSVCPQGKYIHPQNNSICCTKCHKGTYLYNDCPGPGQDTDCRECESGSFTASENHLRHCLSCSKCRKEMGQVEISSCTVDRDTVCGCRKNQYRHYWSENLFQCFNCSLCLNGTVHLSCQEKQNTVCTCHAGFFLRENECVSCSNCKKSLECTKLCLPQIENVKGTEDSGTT

B1: L3T (designed binder)
chain: MTTQELLREEALRRAEAEAFRYALELLAEKFPEQKEYLLDLAEEIESQIRSLSGVDVEDVRKFLDKEWAWVKELLAEHPAELAEVEAARAARLAELRAEVEAKVAA
B2: I49W (designed binder)
chain: B1 chain with T3L, I49W
B3: A28T (designed binder)
chain: B1 chain with T3L, A28T
B4: P32D (designed binder)
chain: B1 chain with T3L, P32D
B5: E86Y (designed binder)
chain: B1 chain with T3L, E86Y
B6: E77V (designed binder)
chain: B1 chain with T3L, E77V
B7: V100G (designed binder)
chain: B1 chain with T3L, V100G
B8: A69H (designed binder)
chain: B1 chain with T3L, A69H
B9: A106L (designed binder)
chain: B1 chain with T3L, A106L
B10: A98M (designed binder)
chain: B1 chain with T3L, A98M
B11: L27T (designed binder)
chain: B1 chain with T3L, L27T
B12: G54Y (designed binder)
chain: B1 chain with T3L, G54Y
B13: S53W (designed binder)
chain: B1 chain with T3L, S53W
B14: E16D (designed binder)
chain: B1 chain with T3L, E16D
B15: A106G (designed binder)
chain: B1 chain with T3L, A106G
B16: E36A (designed binder)
chain: B1 chain with T3L, E36A
B17: E81G (designed binder)
chain: B1 chain with T3L, E81G
B18: A11E (designed binder)
chain: B1 chain with T3L, A11E
B19: L26A (designed binder)
chain: B1 chain with T3L, L26A
B20: A42G (designed binder)
chain: B1 chain with T3L, A42G
B21: A11M (designed binder)
chain: B1 chain with T3L, A11M
B22: E25W (designed binder)
chain: B1 chain with T3L, E25W
B23: L75D (designed binder)
chain: B1 chain with T3L, L75D
B24: E16K (designed binder)
chain: B1 chain with T3L, E16K
B25: D59N (designed binder)
chain: B1 chain with T3L, D59N
B26: V57Y (designed binder)
chain: B1 chain with T3L, V57Y
B27: E5L (designed binder)
chain: B1 chain with T3L, E5L
B28: A94G (designed binder)
chain: B1 chain with T3L, A94G
B29: F20A (designed binder)
chain: B1 chain with T3L, F20A
B30: R21F (designed binder)
chain: B1 chain with T3L, R21F
B31: W70F (designed binder)
chain: B1 chain with T3L, W70F
B32: E29L (designed binder)
chain: B1 chain with T3L, E29L
B33: V104R (designed binder)
chain: B1 chain with T3L, V104R
B34: E33I (designed binder)
chain: B1 chain with T3L, E33I
B35: L74W (designed binder)
chain: B1 chain with T3L, L74W
B36: E99P (designed binder)
chain: B1 chain with T3L, E99P
B37: S47N (designed binder)
chain: B1 chain with T3L, S47N
B38: E99G (designed binder)
chain: B1 chain with T3L, E99G
B39: E9T (designed binder)
chain: B1 chain with T3L, E9T
B40: T2S (designed binder)
chain: B1 chain with T2S, T3L
B41: Y37V (designed binder)
chain: B1 chain with T3L, Y37V
B42: V104S (designed binder)
chain: B1 chain with T3L, V104S
B43: H78I (designed binder)
chain: B1 chain with T3L, H78I
B44: E5S (designed binder)
chain: B1 chain with T3L, E5S
B45: I45V (designed binder)
chain: B1 chain with T3L, I45V
B46: P79H (designed binder)
chain: B1 chain with T3L, P79H
B47: A106D (designed binder)
chain: B1 chain with T3L, A106D
B48: E84K (designed binder)
chain: B1 chain with T3L, E84K
B49: V100T (designed binder)
chain: B1 chain with T3L, V100T
B50: L27V (designed binder)
chain: B1 chain with T3L, L27V
B51: L82V (designed binder)
chain: B1 chain with T3L, L82V
B52: V104Y (designed binder)
chain: B1 chain with T3L, V104Y
B53: E77P (designed binder)
chain: B1 chain with T3L, E77P
B54: V100P (designed binder)
chain: B1 chain with T3L, V100P
B55: R14M (designed binder)
chain: B1 chain with T3L, R14M

Target: T1, TNFR1
Assay: yeast display SC50

| Binder | apparent Kd (screen) |
| --- | --- |
| B1 | 4.83 nM |
| B2 | 2.48 nM |
| B3 | 1.27 nM |
| B4 | 0.869 nM |
| B5 | 2.05 nM |
| B6 | 0.593 nM |
| B7 | 0.718 nM |
| B8 | 0.869 nM |
| B9 | 0.539 nM |
| B10 | 0.653 nM |
| B11 | 0.539 nM |
| B12 | 2.73 nM |
| B13 | 13.8 nM |
| B14 | 1.05 nM |
| B15 | 0.956 nM |
| B16 | 0.49 nM |
| B17 | 0.539 nM |
| B18 | 0.446 nM |
| B19 | 0.718 nM |
| B20 | 0.49 nM |
| B21 | 1.27 nM |
| B22 | 1.16 nM |
| B23 | 0.539 nM |
| B24 | 5.31 nM |
| B25 | 0.653 nM |
| B26 | 0.49 nM |
| B27 | 0.718 nM |
| B28 | 0.539 nM |

| Binder | apparent Kd (screen) |
| --- | --- |
| B29 | 2.05 nM |
| B30 | 0.49 nM |
| B31 | 0.593 nM |
| B32 | 0.539 nM |
| B33 | 0.718 nM |
| B34 | 0.718 nM |
| B35 | 0.189 nM |
| B36 | 1.16 nM |
| B37 | 0.49 nM |
| B38 | 0.539 nM |
| B39 | 0.956 nM |
| B40 | 0.653 nM |
| B41 | 24.4 nM |
| B42 | 0.869 nM |
| B43 | 1.16 nM |
| B44 | 0.49 nM |
| B45 | 0.593 nM |
| B46 | 0.49 nM |
| B47 | 1.05 nM |
| B48 | 0.869 nM |
| B49 | 0.49 nM |
| B50 | 1.54 nM |
| B51 | 0.49 nM |
| B52 | 0.593 nM |
| B53 | 0.405 nM |
| B54 | 0.593 nM |
| B55 | 0.718 nM |
